Experimental data published in US20230066984A1, “New Carbon Glycoside Glycosyltransferase and Use Thereof” (CAS Center for Excellence in Molecular Plant Sciences, priority 2020, published 2023).
Residue numbers refer to the chain shown, from its start.

B1: SiCGT2: C-glycosyltransferase from millet, SEQ ID NO: 18 (protein, listed as Setaria italica)
chain: MSSPPPPNSTSDDCQGTAATPHIVLFPSAGMGHLVPFTRLAVALSAGHCCDVSLVTALPTVSSAESCHIAALFAAFPAVRRLDLRLAPLDASSEFPGADPFYVRYEALRRSTPLLLGPLLAGASASALVADIALASVAIPVARELRVPCYVFFTASATMLSFKAYFPTYLDANGGAGHSVGDVDVPGVCRVPRSSIPQALHDPDDIFTRQFVANGRALVAADGLLVNAFEAMEPEAVAALLGGSVVASLPPVFAVGPLMPLNLREAAEEQGNYRAWLDAQPPRSVVYVSFGSRKALARDQIRELAAWLEACGHRFLWVVKGAVVDRDDACELSDLLGEGFQRRVEGRGLVTKSWVEQDEVLRHPAVGLFVSHCGWNSVTEAAANGVPVLAWPRFADQRVNARVVARAGFGVWVERWSWEGEEAVVGAEEIAEQVVAAMGDQAVAEKAASVRDEAARAVADGGTSQQSLAEFVRRCRGGLAGPGTDLGRTWTARG
B2: TaCGT1-D: C-glycosyltransferase from wheat, SEQ ID NO: 10 (protein, listed as Triticum aestivum)
chain: MPTSGDASGALPHPHVVLLPSAGMGHLVPFSRLAVSLSSPGHGCGVSVATVLPTVSSAESAHLDALFGACPAVRRLDFHLAPFDASEFPGADPFFLRFEAMRRSAPLLGPLLAGAGASALVTDIALASVVIPVARDLRLPCYVLFTASAAMLSLCVHFPAYLDANAGGPVGDVGIPGVYRVPKASIPQALHHPEHLFTQQFVANGRELAKADGLLVNSFDAFEPEAIAALRNGSVAAGFPPVFSVGPLAPVSFSASEPPENQADYMRWLEAQPARSVVYVSFGSRKAISKDQLRELAVGLEASGHRFLWVVKSTVVDRDDEAELSELLGEGFLERVQGRGMVTKGWVEQEEVLKQESIGLFISHCGWNSVTEAAANGLPVLAWPRFGDQRVNAGVVARSGLGVWEERWSWEGEEGTVSGHNIAEKVKTVMADKTVRNKAVSVQDAAAEAVADGGTSYRSLAQFVQRCRDLSVSK
B3: TaCGT2-D: C-glycosyltransferase from wheat, SEQ ID NO: 13 (protein, listed as Triticum aestivum)
chain: MASSSRDDRAGAAAPRPRIVLIPSAGMGHLAPFSRLAAALSSGHTCNVSLVTVLPTVSSAESGHLDALFAAFPAVRRLDFQLPPLDAPELSGADPFYVHYEATRRSARLLAPLLAAADASALVADISLASVLIPVASELRLPCYVFFTASATMFSFYAYYPTYLDAAGAGDADVPGVYRIPKSSFPQALHDRNNLFTQQFVANGQSLSKADGLLINTFDALEPEAVTALRQGSVVPGFPPVFNVGPLSPVSFPARASSDYSAWLDAQPERSVVYVSFGSRKALARDQLSELADGLEASGCRFLWVVKGTVVDKDDGAELSELLGEGFLQRVSGRALVTKAWVEQGEVLKHPAIGMFVSHCGWNSLTEAFASGVPVLAWPRFADQRVNAGIVARRGAGVWVERWSWEGDDGVVKGEEIAEKVKSVMADEMLRRSSTVVREAAMTAVAGGGTSYRSLAELVARCCDGSASNAPSEA
B4: TaCGT2-A: C-glycosyltransferase from wheat, SEQ ID NO: 11 (protein, listed as Triticum aestivum)
chain: MASSSRDDRAGAAAPRPRIVLLPSAGMGHLAPFSRLAAALSSGHACDVSLVTVLPTVSSAESGQLDALFAAFPAVRRLDFHLPPLDAPELSGADPFYVHYEATRRSARLLAPLLAAADASALIADISLASVLIPVASELRLPCYVFFTASATMFSFYAYYPTYLDATGAGDADVPGVYRIPKSSFPQALHDRNNLFTQQFVANGRSLSKADGLLINTFDDLEPEAVTALRQGSVVPGFPPVFTVGPLSPVSFPARASSDYSAWLDAQPERSVVYVSFGSRKALARDQLSELADGLEASGCRFLWVVKGAVVDKDDGAELSELLGEGFLQRVSGRALVTKAWVEQGEVLKHPAIGMFVSHCGWNSLTEAFATGVPVLAWPRFADQRVNAGIVARCGAGVWVERWSWEGDDGVVKGEEIAEKVKSVMADEMLRRSSTVVREAATTAVAGGGTSYRSLAELVARCCHGSALQ
B5: ZmCGT4: C-glycosyltransferase from maize, SEQ ID NO: 14 (protein)
chain: MSSPAPSSASRSSHGSRGSPRIVLFPSAGMGHLVPFTRLAVALSAGHGCEISLLTALPTVSSAESRHIAALYAAFPAIRQLDLRFAPFDASSEFPGADPFYLRYEALRRCAPSLLGPLLAGAGASALVVDMALASVAIPVARELHVPCFVFFTASATMLSFKAYFPTYLDDVGAGHGVGDVDVPGVYRIPSSSVPQALHDPDNIFTRQFVANGRALATADGLLVNAFHAMEPEAVEALQGRFVLSVLPPVFAVGPLMPVNDLRETGEAAQKQGNYRAWLDEQPPRSVVYVSFGSRKALPKDQIKELAAGLEACGHRFLWVVKGAVVDRDDAGELSELLGEAFLRRVHGRGLVTKSWVEQEEVLRHPAVALFVSHCGWNSVTEAVSSGVPVLAWPRFADQRVNARVVVRCGLGVWADQWSWEGEEALVRAEEITALVMEAMEDDAMAVKAANVREAASRAVVDGGTSYRSLAAFVRRCTA
modifications: Zea mays
B6: ZmCGT5: C-glycosyltransferase from maize, SEQ ID NO: 15 (protein)
chain: B5 chain with A9P, G18S, E50D, L54V
modifications: Zea mays
B7: TaCGT2-B: C-glycosyltransferase from wheat, SEQ ID NO: 12 (protein, listed as Triticum aestivum)
chain: MASSPRDDRAGAAAPRPRIVLLPSASMGHLAPFSRLAAALSSGHACDVSLVTVLPTVSSAESGQLDALFAAFPAVRRLDFQLPPLDAPELSGADPFYVHYEATRRSARLLAPLLAAADASVLVADISLASVLIPVASELRLPCYVFFTASATMFSFYAYYPTYLDAAGAGDADVPGVYRIPKSSFPQALHDRNNLFTQQFVANGRSLSKADGLLINTFDALEPEAVTALRQGSVVPGCPPVFTVGPLSPVSFPARASADYSACLDAQPERSVVYVSFGSRKALARDQLSELADGLEASGCRFLWVVKGAVVDKDDGAELSELLGEGFLQRVSGRALVTKAWVEQGEVLKHPAIGMFVSHCGWDSLTEAFATGVPVLAWPRFADQRVNAGIVARCGAGVWVERWSWEGDEGVVKGEEIAEKVKSVMANEMLRRSSTMVREAAMTAVAGGGTSYRSLAELVARCCDGSASQ
B8: BdCGT1: C-glycosyltransferase from Brachypodium distachyo, SEQ ID NO: 16 (protein)
chain: MPTSGDGPTSQPHVVLLPSAGMGHLVPFSRLAVALSSAHGCDVSLVTVLPTVSSAESSHLEALFGAFPAVRRLEFHLADFDASEFPNADPFFLRFEAMRRSAPLLLGPLLARASATALVTDIALSSVVIPVAKQLRLPCYVLFTASAAMLSLCVHFPAYLDANGNGLVGDVDIPGVYQIPKASVPQALHDPKHLFTRQFVANGRELAKSDGVLVNSFDAFEPEAIAALREGAVSAAGFFPPVFSVGPLAPVSFPAGNNNRADYIQWLEAQPARSVVYVSFGSRKAVARDQLRELAAGLEASGHRFLWVVKSTVVDRDDDADLGELLGEGFLERVQGRGMVTKGWVEQEDVLKQESVGLFISHCGWNSVTEAAAGGLPVLAWPRFGDQRVNAGVVARSGLGVWVDSWSWEGEEGVVSGESIAEKVKAVMGDEIARNKAVSVRDAAAKAVADGGTSYRNLARFAQRCRDGRVRE
modifications: Brachypodium distachyon
B9: SiCGT1: C-glycosyltransferase from millet, SEQ ID NO: 17 (protein, listed as Setaria italica)
chain: MPTSGDHSGARPHVVLLPSAGMGHLVPFGRLAVALSAGHGCDVSVAAVLPTVSSAEARHLEALFAAADPAVRRLDFRLAPFDASEFPGADPFFLRFEAMRRSAPLLGPLLATAGASAVVTDIVLASVVLPVARECGVPCYVLFTASAAMLAFCAHFPGYLDANSAAGRAGVVGDVDIPGVYRIPKSSVPQALHDPKHLFTQQFVANGRGLVDADGILVNTFDALEPEAVTALRKGKVVSSFPLVFAVGPLLPVMFPAKDPAGYMQWLDAQPARSVVYVSFGSRTAISPDQLLELAAGLEASGHRFLWVVKSTVVDRDDAGELGDLLGHGFLERVRGRALVTKGWVEQEEILQHGSVGLFVSHCGWNSVTEAAAFGVPVLAWPRFGDQRINAAVVTRGGLGAWEERWSWDGEEGLVSGEEVGEKIKAVMADETVAKKAAAVGDAAAAAATSKGGTSYRSLAEFVGRCRDAGSRQDR

Test: In vitro functional identification of C-glycosyltransferases by HPLC, phloretin as glycosyl receptor
Format: biochemical
Settings: 0.1 mM phloretin, 0.3 mM UDP glucose, crude enzyme, 37° C., 2 h, HPLC (FIG. 1A)
Description: The recombinant plasmid was transformed into competent cells of Escherichia coli BL21 (DE3), and cultured overnight at 37° C. in solid LB medium (kanamycin 50 μg/mL). Single colony was transferred to a 2 mL LB liquid medium (containing 50 μg/ml kanamycin) and incubated overnight. The bacterial fluid was transferred to a new 100 ml LB liquid medium with antibiotics and incubated at 37° C. and 250 r/min until OD600 reached 0.5-0.6. The culture was cooled down to 16° C. in a water bath. Then inducer IPTG was added at a final concentration of 0.1 mM. The mixture was cultured at 16° C. for low temperature induction and 180 r/min for 20 h. The BL21(DE3) recombinant strain carrying the pET28a empty plasmid was used as a blank control, and the culture operation was the same as above. The bacteria were harvested by centrifugation (6000 r/min, 5 min), re-suspended in 1 mL of lysis buffer Buffer A (20 mM Tris-HCl, pH 8.0; 100 mM NaCl), and DNase was added to a final concentration of 5 μg/mL, Mg^2+ to a final concentration of 2 mM; protease inhibitor PMSF to a final concentration of 1 mM; the bacteria were incubated on ice for 30 min and then sonicated; refrigerated centrifugation (10,000 rpm, 30 min, 4° C.), filtered through a 0.2 µm filter membrane to obtain the supernatant crude enzyme solution, and added 20% glycerol for cryopreservation (−20° C.).
The in vitro enzyme catalytic assay system is 100 μL. The reaction system includes: 0.1 mM glycosyl receptor (phloretin or 2-hydroxynaringenin), 0.3 mM UDP glucose, 25 μL supernatant crude enzyme solution, and Buffer A is used to make up the volume to 100 μL, and react at 37° C. for 2 h. After the reaction was completed, an equal volume of methanol was added to terminate the reaction, and HPLC was used for product analysis. HPLC detection conditions: chromatographic column: reverse phase C18 column [SilGreen ODS column (ø 4.6×250 mm)], detection wavelength 280 nm; mobile phase: acetonitrile (0.1% formic acid)-water (0.1% formic acid) mixture gradient elution, with increased ratio from 5:95 to 100:0 within 0 to 20 min, and the flow rate was 1 mL/min.

| Molecule | conversion of substrate phloretin to C-glycosylated product (Nothofagin) | 5′ C-glycosylation of 3′-glycosylated phloretin giving phloretin-3′,5′-C-diglucoside |
| --- | --- | --- |
| B1 | can convert the substrate phloretin to a product having a shorter retention time | – |
| B2 | can convert the substrate phloretin to a product having a shorter retention time | can catalyze the glycosylation of the 3′-glycosylated phloretin at the 5′ position |
| B3 | can convert the substrate phloretin to a product having a shorter retention time | – |
| B4 | can convert the substrate phloretin to a product having a shorter retention time | – |
| B5 | can convert the substrate phloretin to a product having a shorter retention time | – |
| B6 | can convert the substrate phloretin to a product having a shorter retention time | – |
| B7 | can convert the substrate phloretin to a product having a shorter retention time | – |
| B8 | can convert the substrate phloretin to a product having a shorter retention time | – |
| B9 | can convert the substrate phloretin to a product having a shorter retention time | can catalyze the glycosylation of the 3′-glycosylated phloretin at the 5′ position |
